# Reference: paper PMC3883592
# Molecular target: mEPCR on mouse brain microvascular endothelial cells (bEND3) (mouse (endogenous in bEND3)) (UniProt Q64695)
# Assay: radioligand binding
# Chain of mEPCR on mouse brain microvascular endothelial cells (bEND3) (mouse (endogenous in bEND3)) (Q64695 18-242): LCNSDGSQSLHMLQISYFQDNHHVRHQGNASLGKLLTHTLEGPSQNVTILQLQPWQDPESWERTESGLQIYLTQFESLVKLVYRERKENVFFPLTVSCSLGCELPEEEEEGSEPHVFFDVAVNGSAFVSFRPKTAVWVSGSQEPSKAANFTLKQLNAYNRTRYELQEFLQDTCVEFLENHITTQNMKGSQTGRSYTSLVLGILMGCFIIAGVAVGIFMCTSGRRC
amount bound as percent of human APC at 50 nM [%],fold increase of binding with 1 mM Mg2+ over Ca2+ alone [fold],Kd [nM],Substance
30,3,–,Mouse APC (enzyme)
–,10,23,Recombinant activated human protein C (Xigris) (enzyme)
